Test results reported in patent US20250361274A1, “PEPTIDE AND PEPTIDE-CONTAINING AGENT” (PEPTIDREAM INC., priority 2022, published 2025).
Numbered stars: 1 amine (or outer) side, 2 acyl side, 3 side chain; on linkers, the order of the positions; unused ones are H or OH. Bridge positions count the residues as written; N and C are the ends. Square brackets hold non-standard residues; d marks the D form. * marks the point of attachment. KCOpipzaa = N6-(4-(carboxymethyl)piperazine-1-carbonyl)-L-lysine, O=C(NCCCC[C@H](N[*:1])C(=O)[*:2])N1CCN(CC(=O)[*:3])CC1; X8 = 4‑(carboxymethyl)piperazine‑1‑carbonyl, O=C(O)CN1CCN(C(=O)*)CC1; Phe(4-COOH) = N[C@@H](Cc1ccc(C(=O)O)cc1)C(=O)O; Bip = N[C@@H](Cc1ccc(-c2ccccc2)cc1)C(=O)O; Phe(4-F) = N[C@@H](Cc1ccc(F)cc1)C(=O)O; 4Pal = N[C@@H](Cc1ccncc1)C(=O)O; Cit = NC(=O)NCCC[C@H](N)C(=O)O

What was measured:
BMP4 = target: T1, BMP4 (Homo sapiens, UniProt P12644); assay: BMP4 signal transduction inhibitory activity: SMAD1 phosphorylation by BMP4 stimulus, AlphaLISA SureFire, A549 cells; assay type: cell-based; conditions: inhibition of SMAD1 phosphorylation by BMP4 stimulus, AlphaLISA, A549 cells; class by peptide concentration zone
T1 sequence (P12644 293-408): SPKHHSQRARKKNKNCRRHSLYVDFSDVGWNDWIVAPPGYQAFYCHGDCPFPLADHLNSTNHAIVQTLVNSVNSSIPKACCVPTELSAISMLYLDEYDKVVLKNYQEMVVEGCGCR

BMP7 = target: T2, BMP7 (Homo sapiens, UniProt P18075); assay: BMP7 signal transduction inhibitory activity: SMAD1 phosphorylation by BMP7 stimulus, A549 cells; assay type: cell-based; conditions: inhibition of SMAD1 phosphorylation by BMP7 stimulus, AlphaLISA, A549 cells; class by peptide concentration zone
T2 sequence (P18075 293-431): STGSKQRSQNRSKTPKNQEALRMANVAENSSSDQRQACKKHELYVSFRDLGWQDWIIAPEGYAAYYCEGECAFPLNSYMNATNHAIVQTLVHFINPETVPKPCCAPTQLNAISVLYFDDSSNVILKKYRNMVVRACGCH
Procedure, shortened: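 Cell line A549; stimulus BMP7 10 nM; endpoint pSMAD1. Peptide doses: three concentrations (1–1,000 nM range) or 8 × 1/3 dilutions from 100/1,000 nM.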

Substance | aLISA BMP4 (BMP4) | aLISA BMP7 (BMP7)
53 (Ac-ERVYVDR[Bip]PYP[Bip]Y[Phe(4-COOH)][Phe(4-COOH)]SCG-NH2; thioether (positions not given here); not fully specified (bridges)) [compound 53] | A (showed an inhibitory activity of 50% or more in a zone to which the peptide was added to in an amount of 0.2 nM) | ND (the inhibitory activity was less than 30% at the maximum concentration evaluated)
57 (Ac-ARVYVDK(X8)[Bip]PYP[Bip]Y[Phe(4-COOH)][Phe(4-COOH)]SCG-NH2; thioether (positions not given here); not fully specified (bridges)) [compound 57] | C (showed an inhibitory activity of less than 50% in 0.2 nM-addition zone and showed an inhibitory activity of 50% or more in 2 nM-addition zone were defined as B or C) | C (showed less than 50% of inhibitory activity in 10 nM-addition zone and showed 50% or more of inhibitory activity in 100 nM-addition zone)
58 (Ac-ARVYVD[Cit][Bip]PYP[Bip]Y[Phe(4-COOH)][Phe(4-COOH)]SCG-NH2; thioether (positions not given here); not fully specified (bridges)) [compound 58] | A (showed an inhibitory activity of 50% or more in a zone to which the peptide was added to in an amount of 0.2 nM) | C (showed less than 50% of inhibitory activity in 10 nM-addition zone and showed 50% or more of inhibitory activity in 100 nM-addition zone)
59 (Ac-AK(X8)VYVDR[Bip]PYP[Bip][Phe(4-F)][Phe(4-COOH)][Phe(4-COOH)]SCG-NH2; thioether (positions not given here); not fully specified (bridges)) [compound 59] | A (showed an inhibitory activity of 50% or more in a zone to which the peptide was added to in an amount of 0.2 nM) | C (showed less than 50% of inhibitory activity in 10 nM-addition zone and showed 50% or more of inhibitory activity in 100 nM-addition zone)
62 (Ac-A[KCOpipzaa]VYVD[KCOpipzaa][Bip]PYP[Bip][4Pal][Phe(4-COOH)][Phe(4-COOH)]SCG-NH2; thioether (positions not given here); not fully specified (bridges)) [compound 62] | D (showed inhibitory activity of less than 50% in 2 nM-addition zone) | ND (the inhibitory activity was less than 30% at the maximum concentration evaluated)
63 (Ac-E[KCOpipzaa]VYVDR[Bip]PYP[Bip]Y[Phe(4-COOH)][Phe(4-COOH)]SCG-NH2; thioether (positions not given here); not fully specified (bridges)) [compound 63] | A (showed an inhibitory activity of 50% or more in a zone to which the peptide was added to in an amount of 0.2 nM) | C (showed less than 50% of inhibitory activity in 10 nM-addition zone and showed 50% or more of inhibitory activity in 100 nM-addition zone)
64 (Ac-E[KCOpipzaa]VYVD[KCOpipzaa][Bip]PYP[Bip]Y[Phe(4-COOH)][Phe(4-COOH)]SCG-NH2; thioether (positions not given here); not fully specified (bridges)) [compound 64] | C (showed an inhibitory activity of less than 50% in 0.2 nM-addition zone and showed an inhibitory activity of 50% or more in 2 nM-addition zone were defined as B or C) | D (showed less than 50% of inhibitory activity in 100 nM-addition zone)
65 (Ac-E[KCOpipzaa]VYVDR[Bip]PYP[Bip][Phe(4-F)][Phe(4-COOH)][Phe(4-COOH)]SCG-NH2; thioether (positions not given here); not fully specified (bridges)) [compound 65] | A (showed an inhibitory activity of 50% or more in a zone to which the peptide was added to in an amount of 0.2 nM) | C (showed less than 50% of inhibitory activity in 10 nM-addition zone and showed 50% or more of inhibitory activity in 100 nM-addition zone)
68 ({CH2CO}-E[KCOpipzaa]VYVD[KCOpipzaa][Bip]PYP[Bip][4Pal][Phe(4-COOH)][Phe(4-COOH)]SCG-NH2; thioether N-17; not fully specified) [compound 68] | D (showed inhibitory activity of less than 50% in 2 nM-addition zone) | ND (the inhibitory activity was less than 30% at the maximum concentration evaluated)
70 ({CH2CO}-ARVYVDK[Bip]PYP[Bip]Y[Phe(4-COOH)][Phe(4-COOH)]SCG-NH2; thioether N-17; not fully specified) [compound 70] | A (showed an inhibitory activity of 50% or more in a zone to which the peptide was added to in an amount of 0.2 nM) | C (showed less than 50% of inhibitory activity in 10 nM-addition zone and showed 50% or more of inhibitory activity in 100 nM-addition zone)
71 ({CH2CO}-ERVYVDR[Bip]PYP[Bip][Phe(4-F)][Phe(4-COOH)][Phe(4-COOH)]SCG-NH2; thioether N-17; not fully specified) [compound 71] | A (showed an inhibitory activity of 50% or more in a zone to which the peptide was added to in an amount of 0.2 nM) | C (showed less than 50% of inhibitory activity in 10 nM-addition zone and showed 50% or more of inhibitory activity in 100 nM-addition zone)
72 ({CH2CO}-ERVYVDR[Bip]PYP[Bip][Phe(4-F)][Phe(4-COOH)][4Pal]SCG-NH2; thioether N-17; not fully specified) [compound 72] | A (showed an inhibitory activity of 50% or more in a zone to which the peptide was added to in an amount of 0.2 nM) | C (showed less than 50% of inhibitory activity in 10 nM-addition zone and showed 50% or more of inhibitory activity in 100 nM-addition zone)
76 ({CH2CO}-E[KCOpipzaa]VYV[KCOpipzaa][KCOpipzaa][Bip]PYP[Bip][Phe(4-F)][Phe(4-COOH)][4Pal]SCG-NH2; thioether N-17; not fully specified) [compound 76] | C (showed an inhibitory activity of less than 50% in 0.2 nM-addition zone and showed an inhibitory activity of 50% or more in 2 nM-addition zone were defined as B or C) | C (showed less than 50% of inhibitory activity in 10 nM-addition zone and showed 50% or more of inhibitory activity in 100 nM-addition zone)
77 ({CH2CO}-ERVYVDR[Bip][KCOpipzaa]YP[Bip][Phe(4-F)][Phe(4-COOH)][Phe(4-COOH)]SCG-NH2; thioether N-17; not fully specified) [compound 77] | A (showed an inhibitory activity of 50% or more in a zone to which the peptide was added to in an amount of 0.2 nM) | C (showed less than 50% of inhibitory activity in 10 nM-addition zone and showed 50% or more of inhibitory activity in 100 nM-addition zone)
78 ({CH2CO}-ERVYVDR[Bip][KCOpipzaa]YP[Bip][Phe(4-F)][Phe(4-COOH)][4Pal]SCG-NH2; thioether N-17; not fully specified) [compound 78] | A (showed an inhibitory activity of 50% or more in a zone to which the peptide was added to in an amount of 0.2 nM) | C (showed less than 50% of inhibitory activity in 10 nM-addition zone and showed 50% or more of inhibitory activity in 100 nM-addition zone)
